Data as given in patent publication US20200031892A1, “COMPOSITION COMPRISING NEUREGULIN FOR ORGAN PERFUSION, PRESERVATION OR REPERFUSION, AND USE THEREOF” (Zensun (Shanghai) Science & Technology, Co., Ltd., priority 2007, published 2020).

Assays:
[1] = tested on: patients with stable chronic heart failure; test: Haemodynamics in patients with stable chronic heart failure after continuous intravenous infusion of neuregulin; type: in vivo, human; settings: 0.2 μg/kg/hour i.v. infusion for 6 hours
Description: 6 patients with stable chronic heart failure were treated with continuous intravenous infusion of neuregulin at 0.2 μg/kg/hour (drug weight/body weight/hour) for 6 hours. A baseline right heart catheterisation was performed and Swan Ganz catheter left in situ to monitor haemodynamics for 24 hours.

[2] = tested on: cardiomyocytes from myocardial infarcted rats; test: Relaxation of cardiomyocytes isolated from myocardial infarcted rats treated with neuregulin by osmotic pump; type: in vivo, rat; settings: myocytes from MI rats treated with neuregulin compared with MI rats treated with vehicle
Description: Wistar male rats (Shanghai Animal Center of Chinese Academy of Science), which weighed 200±20 g, were anesthetized by intraperitoneally injecting 100 mg/kg (drug/body weight) of ketamine. The neck and chest were depilated and sanitized. An incision Was made in the middle front neck to expose the tracheae. An 18G catheter overneedle was inserted into the tracheae between the 3rd and 5th cartilage of tracheae. After the needle was drawn out, a plastic cannula was pushed into the trachea 1-2 cm and fixed to connect the Rodent Ventilator (SAR-830/P ventilator—Inspiratory flow rate, 1 ml/100 g/breath; Respiratory rate, 60 breaths/min). Another incision was made on the left front chest. The skin was blunt dissected to expose the fourth and fifth rib, then the fourth rib was cut by elbowed mosquito forceps. The ventilator (as described above) was linked to the cannula and turned on, and the heart was exposed to check the status of lung and heart. The pericardium was rived off to identify the left atria and the pulmonary arterious cone after the heart was exteriorized through the incision. The left ventricle anterior descending coronary artery between them was ligated tight with 6/0 medical suture before the heart was replaced into the thorax. The thoracic wall was stitched. The ventilator was blocked to full fill the lung. […]

B1: NRG: NRG having the sequence of SEQ ID NO:1, which corresponds to amino acids 177-237 of human NRG-1 (protein, listed as Homo sapiens)
chain: SHLVKCAEKEKTFCVNGGECFMVKDLSNPSRYLCKCPNEFTGDRCQNYVMASFYKAEELYQ
increase of average cardiac output ([1]; 2 hours after infusion vs baseline 3.7±1.0 L/min): 29.7% | systemic vascular resistance (SVR) ([1]; after infusion (baseline 1679.3±336.3)): 1199.5±127.6 dynes-sec-cm^−5 | average cardiac output ([1]; at 2 hours after infusion (baseline 3.7±1.0)): 4.8 ± 0.8 L/min | fall of systemic vascular resistance (SVR) ([1]; vs baseline 1679.3±336.3): 29% | relaxation of myocytes (time to relax to half of the maximum length, FIG. 1) [2]: relax much faster
